The values below come from the supplement of paper PMC9112550, “Optimization of the antimicrobial peptide Bac7 by deep mutational scanning” (BMC Biology, 2022).

In the data set the test system is Escherichia coli TOP10. Kind of data set: shrunken log2 fold change of peptide-encoding DNA abundance (4.5 h post-induction vs induction); higher = less antimicrobial activity (less host growth inhibition). Conditions: time post-induction: 4.5 h; library: site-saturation at positions 5, 18, 19, 20.
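Also: peptides expressed intracellularly from a pBAD plasmid library in pooled LB shake-flask culture, induced with 0.3% L-arabinose, DNA abundance read by NGS, three biological replicates, DESeq2 with apeglm shrinkage.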

As to RRIRTRPPRLPRPRPRPDDFPRP, the “shrunken log2 fold change” value came to 0.0516. Then RRIRYRPPRLPRPRPRPMTGPRP, with 0.0192; and RRIRTRPPRLPRPRPRPNHYPRP, with -0.679. In the case of RRIRLRPPRLPRPRPRPNPWPRP it was 0.0455; in that of RRIRRRPPRLPRPRPRPPNGPRP, 0.407. As to RRIRMRPPRLPRPRPRPSSFPRP, the “shrunken log2 fold change” value was -0.0557. Then RRIRYRPPRLPRPRPRPWQVPRP, with -0.09; and RRIRQRPPRLPRPRPRPTALPRP, with -0.0491; and RRIRDRPPRLPRPRPRPCEHPRP, with -0.133. Then RRIRNRPPRLPRPRPRPFSGPRP, with -0.277; and RRIRIRPPRLPRPRPRPVRPPRP, with 0.664; and RRIRIRPPRLPRPRPRPWCSPRP, with -0.412. Then RRIRKRPPRLPRPRPRPHTYPRP, with -0.101. Take RRIRKRPPRLPRPRPRPMNLPRP: the “shrunken log2 fold change” value is -0.223.

RRIRHRPPRLPRPRPRPVRGPRP: the “shrunken log2 fold change” value was 0.328. In the case of RRIRVRPPRLPRPRPRPVQEPRP it was -0.0375; in that of RRIRKRPPRLPRPRPRPKSTPRP, 0.0348; in that of RRIRRRPPRLPRPRPRPLFNPRP, -0.162. In the case of RRIRWRPPRLPRPRPRPPIFPRP it was 0.488; in that of RRIRNRPPRLPRPRPRPHSRPRP, -0.0742; in that of RRIRFRPPRLPRPRPRPRAQPRP, 0.191. In the case of RRIRFRPPRLPRPRPRPYLCPRP it was -0.477; in that of RRIRSRPPRLPRPRPRPVMLPRP, -0.112.

For RRIRSRPPRLPRPRPRPTSYPRP, the “shrunken log2 fold change” value was -0.0485. In the case of RRIRPRPPRLPRPRPRPYVTPRP it was -0.239. In the case of RRIRIRPPRLPRPRPRPAPIPRP it was -0.0266. Turning to RRIRMRPPRLPRPRPRPTNHPRP, the “shrunken log2 fold change” value came to 0.0232.

On to RRIRVRPPRLPRPRPRPCRSPRP, for which the “shrunken log2 fold change” value turned out to be 0.00156. Then RRIRERPPRLPRPRPRPKSRPRP, with 0.0203. Then RRIRLRPPRLPRPRPRPSPSPRP, with -0.218. Then RRIRGRPPRLPRPRPRPVMDPRP, with 0.96; and RRIRKRPPRLPRPRPRPRLRPRP, with 0.485; and RRIRLRPPRLPRPRPRPYDPPRP, with -0.109.

RRIRLRPPRLPRPRPRPTWEPRP: the “shrunken log2 fold change” value came to 0.0313. Then RRIRHRPPRLPRPRPRPYPGPRP, with -0.216; and RRIRTRPPRLPRPRPRPHCTPRP, with -0.298; and RRIRLRPPRLPRPRPRPEPRPRP, with 0.74.

With RRIRSRPPRLPRPRPRPYARPRP, the “shrunken log2 fold change” value is -0.351. Turning to RRIRVRPPRLPRPRPRPWRSPRP, the “shrunken log2 fold change” value is -0.0506. In the case of RRIRSRPPRLPRPRPRPMLTPRP it was -0.0725. Then RRIRHRPPRLPRPRPRPMPWPRP, with -0.032; and RRIRRRPPRLPRPRPRPTFGPRP, with 0.337; and RRIRGRPPRLPRPRPRPDREPRP, with 0.34. Then RRIRRRPPRLPRPRPRPKADPRP, with 0.198; and RRIRMRPPRLPRPRPRPTWMPRP, with 0.25; and RRIRCRPPRLPRPRPRPFENPRP, with -0.0274. Regarding RRIRARPPRLPRPRPRPVCCPRP, the “shrunken log2 fold change” value turned out to be 0.573. Then RRIRKRPPRLPRPRPRPQHHPRP, with -0.201; and RRIRARPPRLPRPRPRPWWEPRP, with 0.37. In the case of RRIRPRPPRLPRPRPRPQSCPRP it was -0.0478; in that of RRIRARPPRLPRPRPRPSLVPRP, 0.413. In the case of RRIRPRPPRLPRPRPRPTDIPRP it was -0.241. For RRIRMRPPRLPRPRPRPKYFPRP, the “shrunken log2 fold change” value was -0.186. In the case of RRIRYRPPRLPRPRPRPMRAPRP it was 0.605. In the case of RRIRCRPPRLPRPRPRPQVYPRP it was -0.313. In the case of RRIRLRPPRLPRPRPRPMKYPRP it was -0.236; in that of RRIRGRPPRLPRPRPRPINWPRP, 0.193. Regarding RRIRSRPPRLPRPRPRPAPVPRP, the “shrunken log2 fold change” value was determined as 0.269. In the case of RRIRQRPPRLPRPRPRPRYSPRP it was -0.192. In the case of RRIRERPPRLPRPRPRPILYPRP, the “shrunken log2 fold change” value was -0.615. In the case of RRIRGRPPRLPRPRPRPFMVPRP, the “shrunken log2 fold change” value is -0.131. Then RRIRYRPPRLPRPRPRPRWTPRP, with 0.2. In the case of RRIRSRPPRLPRPRPRPYVDPRP it was -0.594; in that of RRIRYRPPRLPRPRPRPVGVPRP, -0.0394. Then RRIRSRPPRLPRPRPRPSPCPRP, with -0.04. Turning to RRIRPRPPRLPRPRPRPSHEPRP, the “shrunken log2 fold change” value was determined as 0.0992. In the case of RRIRRRPPRLPRPRPRPLFCPRP, the “shrunken log2 fold change” value was 0.24.

In the case of RRIRMRPPRLPRPRPRPFCYPRP, the “shrunken log2 fold change” value was -0.117. In the case of RRIRNRPPRLPRPRPRPIWEPRP, the “shrunken log2 fold change” value is -0.131. In the case of RRIRLRPPRLPRPRPRPHQFPRP it was 0.0562; in that of RRIRARPPRLPRPRPRPNYEPRP, -0.22.

For RRIRDRPPRLPRPRPRPSAAPRP, the “shrunken log2 fold change” value stood at 1.02. As for RRIRWRPPRLPRPRPRPIPSPRP, the “shrunken log2 fold change” value stood at 0.0317. In the case of RRIRARPPRLPRPRPRPEANPRP it was 1.69; in that of RRIRQRPPRLPRPRPRPNMIPRP, -0.209; in that of RRIRWRPPRLPRPRPRPAHCPRP, -0.0174. With RRIRNRPPRLPRPRPRPNEEPRP, the “shrunken log2 fold change” value was -0.00613. Then RRIRGRPPRLPRPRPRPLYHPRP, with 3.13. Consider RRIRDRPPRLPRPRPRPYPVPRP, for which the “shrunken log2 fold change” value was 0.00705. In the case of RRIRRRPPRLPRPRPRPKFVPRP it was -0.151; in that of RRIRLRPPRLPRPRPRPDNFPRP, 0.0569; in that of RRIRHRPPRLPRPRPRPTPSPRP, 0.276. In the case of RRIRSRPPRLPRPRPRPHTKPRP it was 0.0141. Then RRIRKRPPRLPRPRPRPKWAPRP, with 0.0446; and RRIRFRPPRLPRPRPRPMTPPRP, with -0.202; and RRIRPRPPRLPRPRPRPMMDPRP, with 0.0321. Take RRIRQRPPRLPRPRPRPVQHPRP: the “shrunken log2 fold change” value is -0.0755. In the case of RRIRMRPPRLPRPRPRPKCIPRP it was -0.113; in that of RRIRRRPPRLPRPRPRPFNRPRP, -0.557; in that of RRIRNRPPRLPRPRPRPPDLPRP, 0.101. In the case of RRIRARPPRLPRPRPRPGTNPRP it was 0.204.
